T1: SYNJ2BP, P57105
T1 sequence (P57105 8-110, limits assumed, looked up): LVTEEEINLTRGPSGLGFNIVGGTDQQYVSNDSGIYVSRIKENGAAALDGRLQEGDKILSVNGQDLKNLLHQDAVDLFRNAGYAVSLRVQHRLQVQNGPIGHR

T2: GRIP1_3, Q9Y3R0
T2 sequence (Q9Y3R0 247-346, limits assumed, looked up): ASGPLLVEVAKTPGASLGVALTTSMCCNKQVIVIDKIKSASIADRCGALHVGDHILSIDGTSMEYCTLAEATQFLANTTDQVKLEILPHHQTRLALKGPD

T3: TJP3_3, O95049
T3 sequence (O95049 375-456, limits assumed, looked up): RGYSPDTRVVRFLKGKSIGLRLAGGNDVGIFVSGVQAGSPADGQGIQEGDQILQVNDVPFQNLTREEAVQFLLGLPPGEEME

T4: GRIP1_5, Q9Y3R0
T4 sequence (Q9Y3R0 568-668, limits assumed, looked up): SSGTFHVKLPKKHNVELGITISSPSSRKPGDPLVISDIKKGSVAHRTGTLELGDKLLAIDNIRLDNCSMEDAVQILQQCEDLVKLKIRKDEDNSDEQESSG

T5: CARD11, Q9BXL7
T5 sequence (Q9BXL7 662-765, limits assumed, looked up): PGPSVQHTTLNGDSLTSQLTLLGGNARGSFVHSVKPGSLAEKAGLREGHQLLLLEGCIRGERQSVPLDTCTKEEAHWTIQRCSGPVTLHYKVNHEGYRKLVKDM

T6: LIN7C, Q9NUP9
T6 sequence (Q9NUP9 88-185, limits assumed, looked up): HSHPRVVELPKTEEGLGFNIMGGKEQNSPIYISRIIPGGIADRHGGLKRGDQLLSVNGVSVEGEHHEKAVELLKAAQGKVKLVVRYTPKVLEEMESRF

T7: GRIP1_2, Q9Y3R0
T7 sequence (Q9Y3R0 145-248, limits assumed, looked up): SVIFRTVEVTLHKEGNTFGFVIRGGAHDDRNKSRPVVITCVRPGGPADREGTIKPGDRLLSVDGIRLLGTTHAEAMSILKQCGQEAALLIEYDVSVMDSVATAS

T8: DFNB31_3, Q9P202
T8 sequence (Q9P202 811-907, limits assumed, looked up): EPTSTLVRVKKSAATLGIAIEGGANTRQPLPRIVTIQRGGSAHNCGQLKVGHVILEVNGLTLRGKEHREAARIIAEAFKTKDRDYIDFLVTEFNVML

T9: MPP7, Q5T2T1
T9 sequence (Q5T2T1 134-230, limits assumed, looked up): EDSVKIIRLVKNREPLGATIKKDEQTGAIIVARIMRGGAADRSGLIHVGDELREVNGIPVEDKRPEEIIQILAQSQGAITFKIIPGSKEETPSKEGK

T10: APBA1_2, Q02410
T10 sequence (Q02410 742-832, limits assumed, looked up): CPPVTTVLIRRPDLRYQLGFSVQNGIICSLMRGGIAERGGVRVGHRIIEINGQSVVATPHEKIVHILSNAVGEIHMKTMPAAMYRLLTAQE


Molecular target: AHNAK1, Q09666
Sequence (Q09666 4-100): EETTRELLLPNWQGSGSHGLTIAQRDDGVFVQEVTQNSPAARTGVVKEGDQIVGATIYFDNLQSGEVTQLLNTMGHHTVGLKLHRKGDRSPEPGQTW
Test: holdup assay
Set-up: key: below the threshold = too weak to quantify, mostly under pKd 3.1 to 4
Details: plain residues with an end cap or a label only (N-terminal biotin on a linker: ado-ado)

| Binder | pKd |
| --- | --- |
| QSLNRMEYIV [JAG1, P78504] | below the threshold |
| QMNQTLPVQV [EPHB3, P54753] | below the threshold |

Molecular target: DLG4_3, P78352
Sequence (P78352 306-403): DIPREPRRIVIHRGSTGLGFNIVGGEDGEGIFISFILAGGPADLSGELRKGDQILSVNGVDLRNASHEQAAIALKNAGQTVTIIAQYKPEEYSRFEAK
Test: holdup assay
Set-up: key: below the threshold = too weak to quantify, mostly under pKd 3.1 to 4
Details: plain residues with an end cap or a label only (N-terminal biotin on a linker: ado-ado)

| Binder | pKd |
| --- | --- |
| QSLNRMEYIV [JAG1, P78504] | below the threshold |
| QMNQTLPVQV [EPHB3, P54753] | below the threshold |

Molecular target: GRIP2_3, Q9C0E4
Sequence (Q9C0E4 238-339): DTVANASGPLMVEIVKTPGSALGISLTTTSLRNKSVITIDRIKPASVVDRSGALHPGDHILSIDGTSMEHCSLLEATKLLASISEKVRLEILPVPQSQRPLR
Test: holdup assay
Set-up: key: below the threshold = too weak to quantify, mostly under pKd 3.1 to 4
Details: plain residues with an end cap or a label only (N-terminal biotin on a linker: ado-ado)

| Binder | pKd |
| --- | --- |
| QSLNRMEYIV [JAG1, P78504] | below the threshold |
| QMNQTLPVQV [EPHB3, P54753] | below the threshold |

Molecular target: PDZRN4_1, Q6ZMN7
Sequence (Q6ZMN7 213-318): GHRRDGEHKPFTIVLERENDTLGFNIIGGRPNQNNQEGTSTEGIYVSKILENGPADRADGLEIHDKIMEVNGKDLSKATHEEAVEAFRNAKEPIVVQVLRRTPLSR
Test: holdup assay
Set-up: key: below the threshold = too weak to quantify, mostly under pKd 3.1 to 4
Details: plain residues with an end cap or a label only (N-terminal biotin on a linker: ado-ado)

| Binder | pKd |
| --- | --- |
| QSLNRMEYIV [JAG1, P78504] | below the threshold |
| QMNQTLPVQV [EPHB3, P54753] | below the threshold |

Molecular target: FRMPD3, Q5JV73
Sequence (Q5JV73 12-100): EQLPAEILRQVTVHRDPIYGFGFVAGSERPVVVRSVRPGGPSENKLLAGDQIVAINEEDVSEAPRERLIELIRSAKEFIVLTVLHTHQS
Test: holdup assay
Set-up: key: below the threshold = too weak to quantify, mostly under pKd 3.1 to 4
Details: plain residues with an end cap or a label only (N-terminal biotin on a linker: ado-ado)

| Binder | pKd |
| --- | --- |
| QSLNRMEYIV [JAG1, P78504] | below the threshold |
| QMNQTLPVQV [EPHB3, P54753] | below the threshold |

Molecular target: T1, SYNJ2BP, P57105
Test: holdup assay
Set-up: key: below the threshold = too weak to quantify, mostly under pKd 3.1 to 4
Details: plain residues with an end cap or a label only (N-terminal biotin on a linker: ado-ado)

| Binder | pKd |
| --- | --- |
| QSLNRMEYIV [JAG1, P78504] | below the threshold |
| QMNQTLPVQV [EPHB3, P54753] | below the threshold |

Molecular target: MAGI2_4, Q86UL8
Sequence (Q86UL8 772-865): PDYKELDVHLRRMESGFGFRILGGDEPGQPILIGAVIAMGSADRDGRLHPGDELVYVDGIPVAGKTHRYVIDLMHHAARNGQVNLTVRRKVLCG
Test: holdup assay
Set-up: key: below the threshold = too weak to quantify, mostly under pKd 3.1 to 4
Details: plain residues with an end cap or a label only (N-terminal biotin on a linker: ado-ado)

| Binder | pKd |
| --- | --- |
| QSLNRMEYIV [JAG1, P78504] | 3.87 |
| QMNQTLPVQV [EPHB3, P54753] | 3.7 |

Molecular target: SCRIB_2, Q14160
Sequence (Q14160 857-960): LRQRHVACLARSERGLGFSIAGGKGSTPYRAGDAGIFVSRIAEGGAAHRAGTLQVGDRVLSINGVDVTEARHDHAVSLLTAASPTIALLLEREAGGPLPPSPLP
Test: holdup assay
Set-up: key: below the threshold = too weak to quantify, mostly under pKd 3.1 to 4
Details: plain residues with an end cap or a label only (N-terminal biotin on a linker: ado-ado)

| Binder | pKd |
| --- | --- |
| QSLNRMEYIV [JAG1, P78504] | below the threshold |
| QMNQTLPVQV [EPHB3, P54753] | below the threshold |

Molecular target: MAGI2_2, Q86UL8
Sequence (Q86UL8 410-522): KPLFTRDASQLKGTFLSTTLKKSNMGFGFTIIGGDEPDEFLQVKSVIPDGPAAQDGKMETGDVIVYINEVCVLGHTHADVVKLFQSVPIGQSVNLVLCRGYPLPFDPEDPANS
Test: holdup assay
Set-up: key: below the threshold = too weak to quantify, mostly under pKd 3.1 to 4
Details: plain residues with an end cap or a label only (N-terminal biotin on a linker: ado-ado)

| Binder | pKd |
| --- | --- |
| QSLNRMEYIV [JAG1, P78504] | 3.91 |
| QMNQTLPVQV [EPHB3, P54753] | below the threshold |

Molecular target: TJP2_1, Q9UDY2
Sequence (Q9UDY2 24-128): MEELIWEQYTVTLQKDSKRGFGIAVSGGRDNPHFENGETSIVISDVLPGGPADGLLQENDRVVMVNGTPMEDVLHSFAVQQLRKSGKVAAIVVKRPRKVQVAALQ
Test: holdup assay
Set-up: key: below the threshold = too weak to quantify, mostly under pKd 3.1 to 4
Details: plain residues with an end cap or a label only (N-terminal biotin on a linker: ado-ado)

| Binder | pKd |
| --- | --- |
| QSLNRMEYIV [JAG1, P78504] | below the threshold |
| QMNQTLPVQV [EPHB3, P54753] | below the threshold |

Molecular target: T2, GRIP1_3, Q9Y3R0
Test: holdup assay
Set-up: key: below the threshold = too weak to quantify, mostly under pKd 3.1 to 4
Details: plain residues with an end cap or a label only (N-terminal biotin on a linker: ado-ado)

| Binder | pKd |
| --- | --- |
| QSLNRMEYIV [JAG1, P78504] | below the threshold |
| QMNQTLPVQV [EPHB3, P54753] | below the threshold |

Molecular target: SCRIB_1, Q14160
Sequence (Q14160 718-814): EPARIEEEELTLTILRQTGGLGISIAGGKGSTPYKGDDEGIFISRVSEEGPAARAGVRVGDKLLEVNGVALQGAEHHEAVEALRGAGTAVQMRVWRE
Test: holdup assay
Set-up: key: below the threshold = too weak to quantify, mostly under pKd 3.1 to 4
Details: plain residues with an end cap or a label only (N-terminal biotin on a linker: ado-ado)

| Binder | pKd |
| --- | --- |
| QSLNRMEYIV [JAG1, P78504] | below the threshold |
| QMNQTLPVQV [EPHB3, P54753] | below the threshold |

Molecular target: T3, TJP3_3, O95049
Test: holdup assay
Set-up: key: below the threshold = too weak to quantify, mostly under pKd 3.1 to 4
Details: plain residues with an end cap or a label only (N-terminal biotin on a linker: ado-ado)

| Binder | pKd |
| --- | --- |
| QSLNRMEYIV [JAG1, P78504] | below the threshold |
| QMNQTLPVQV [EPHB3, P54753] | below the threshold |

Molecular target: T4, GRIP1_5, Q9Y3R0
Test: holdup assay
Set-up: key: below the threshold = too weak to quantify, mostly under pKd 3.1 to 4
Details: plain residues with an end cap or a label only (N-terminal biotin on a linker: ado-ado)

| Binder | pKd |
| --- | --- |
| QSLNRMEYIV [JAG1, P78504] | below the threshold |
| QMNQTLPVQV [EPHB3, P54753] | below the threshold |

Molecular target: GRID2IP_1, A4D2P6
Sequence (A4D2P6 1-87): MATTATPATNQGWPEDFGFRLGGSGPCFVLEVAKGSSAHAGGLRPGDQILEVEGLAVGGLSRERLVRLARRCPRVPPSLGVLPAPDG
Test: holdup assay
Set-up: key: below the threshold = too weak to quantify, mostly under pKd 3.1 to 4
Details: plain residues with an end cap or a label only (N-terminal biotin on a linker: ado-ado)

| Binder | pKd |
| --- | --- |
| QSLNRMEYIV [JAG1, P78504] | below the threshold |
| QMNQTLPVQV [EPHB3, P54753] | below the threshold |

Molecular target: T5, CARD11, Q9BXL7
Test: holdup assay
Set-up: key: below the threshold = too weak to quantify, mostly under pKd 3.1 to 4
Details: plain residues with an end cap or a label only (N-terminal biotin on a linker: ado-ado)

| Binder | pKd |
| --- | --- |
| QSLNRMEYIV [JAG1, P78504] | below the threshold |
| QMNQTLPVQV [EPHB3, P54753] | below the threshold |

Molecular target: T6, LIN7C, Q9NUP9
Test: holdup assay
Set-up: key: below the threshold = too weak to quantify, mostly under pKd 3.1 to 4
Details: plain residues with an end cap or a label only (N-terminal biotin on a linker: ado-ado)

| Binder | pKd |
| --- | --- |
| QSLNRMEYIV [JAG1, P78504] | 3.53 |
| QMNQTLPVQV [EPHB3, P54753] | below the threshold |

Molecular target: LAP2, Q96RT1
Sequence (Q96RT1 other isoform, or with tags, fused parts or gaps): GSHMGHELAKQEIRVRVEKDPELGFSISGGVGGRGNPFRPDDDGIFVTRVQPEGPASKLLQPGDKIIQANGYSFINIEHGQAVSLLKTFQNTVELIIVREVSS
Test: holdup assay
Set-up: key: below the threshold = too weak to quantify, mostly under pKd 3.1 to 4
Details: plain residues with an end cap or a label only (N-terminal biotin on a linker: ado-ado)

| Binder | pKd |
| --- | --- |
| QSLNRMEYIV [JAG1, P78504] | below the threshold |
| QMNQTLPVQV [EPHB3, P54753] | below the threshold |

Molecular target: HTRA2, O43464
Sequence (O43464 355-458): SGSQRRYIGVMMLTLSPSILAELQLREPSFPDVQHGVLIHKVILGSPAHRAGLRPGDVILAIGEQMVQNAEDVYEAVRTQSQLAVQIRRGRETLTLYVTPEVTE
Test: holdup assay
Set-up: key: below the threshold = too weak to quantify, mostly under pKd 3.1 to 4
Details: plain residues with an end cap or a label only (N-terminal biotin on a linker: ado-ado)

| Binder | pKd |
| --- | --- |
| QSLNRMEYIV [JAG1, P78504] | 3.88 |
| QMNQTLPVQV [EPHB3, P54753] | 3.59 |

Molecular target: T7, GRIP1_2, Q9Y3R0
Test: holdup assay
Set-up: key: below the threshold = too weak to quantify, mostly under pKd 3.1 to 4
Details: plain residues with an end cap or a label only (N-terminal biotin on a linker: ado-ado)

| Binder | pKd |
| --- | --- |
| QSLNRMEYIV [JAG1, P78504] | below the threshold |
| QMNQTLPVQV [EPHB3, P54753] | 3.58 |

Molecular target: GORASP2, Q9H8Y8
Test: holdup assay
Set-up: key: below the threshold = too weak to quantify, mostly under pKd 3.1 to 4
Details: plain residues with an end cap or a label only (N-terminal biotin on a linker: ado-ado)

| Binder | pKd |
| --- | --- |
| QSLNRMEYIV [JAG1, P78504] | 5.14 |
| QMNQTLPVQV [EPHB3, P54753] | 3.81 |

Molecular target: GRIP2_7, Q9C0E4
Sequence (Q9C0E4 934-1023): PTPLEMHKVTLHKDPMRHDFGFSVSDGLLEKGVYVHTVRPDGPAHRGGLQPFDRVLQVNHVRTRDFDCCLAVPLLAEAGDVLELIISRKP
Test: holdup assay
Set-up: key: below the threshold = too weak to quantify, mostly under pKd 3.1 to 4
Details: plain residues with an end cap or a label only (N-terminal biotin on a linker: ado-ado)

| Binder | pKd |
| --- | --- |
| QSLNRMEYIV [JAG1, P78504] | 4.33 |
| QMNQTLPVQV [EPHB3, P54753] | 3.58 |

Molecular target: DLG1_3, Q12959
Sequence (Q12959 457-571): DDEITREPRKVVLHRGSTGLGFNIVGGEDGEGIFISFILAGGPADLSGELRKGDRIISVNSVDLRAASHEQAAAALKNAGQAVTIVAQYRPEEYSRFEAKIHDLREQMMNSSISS
Test: holdup assay
Set-up: key: below the threshold = too weak to quantify, mostly under pKd 3.1 to 4
Details: plain residues with an end cap or a label only (N-terminal biotin on a linker: ado-ado)

| Binder | pKd |
| --- | --- |
| QSLNRMEYIV [JAG1, P78504] | below the threshold |
| QMNQTLPVQV [EPHB3, P54753] | 3.76 |

Molecular target: T8, DFNB31_3, Q9P202
Test: holdup assay
Set-up: key: below the threshold = too weak to quantify, mostly under pKd 3.1 to 4
Details: plain residues with an end cap or a label only (N-terminal biotin on a linker: ado-ado)

| Binder | pKd |
| --- | --- |
| QSLNRMEYIV [JAG1, P78504] | 3.86 |
| QMNQTLPVQV [EPHB3, P54753] | below the threshold |

Molecular target: T9, MPP7, Q5T2T1
Test: holdup assay
Set-up: key: below the threshold = too weak to quantify, mostly under pKd 3.1 to 4
Details: plain residues with an end cap or a label only (N-terminal biotin on a linker: ado-ado)

| Binder | pKd |
| --- | --- |
| QSLNRMEYIV [JAG1, P78504] | 3.98 |
| QMNQTLPVQV [EPHB3, P54753] | below the threshold |

Molecular target: T10, APBA1_2, Q02410
Test: holdup assay
Set-up: key: below the threshold = too weak to quantify, mostly under pKd 3.1 to 4
Details: plain residues with an end cap or a label only (N-terminal biotin on a linker: ado-ado)

| Binder | pKd |
| --- | --- |
| QSLNRMEYIV [JAG1, P78504] | below the threshold |
| QMNQTLPVQV [EPHB3, P54753] | 4.8 |

Molecular target: SNX27, Q96L92
Test: holdup assay
Set-up: key: below the threshold = too weak to quantify, mostly under pKd 3.1 to 4
Details: plain residues with an end cap or a label only (N-terminal biotin on a linker: ado-ado)

| Binder | pKd |
| --- | --- |
| QSLNRMEYIV [JAG1, P78504] | below the threshold |
| QMNQTLPVQV [EPHB3, P54753] | 3.86 |
